# Experimental data: a protein production outcome set (Wang et al. 2014)
# Assay: label from the status in PepcDB records
row,Sequence,protein production
1,MAIESGYILTTPCKNEEKSLPELAESIINQTITPKLWLIINDNSTDNSAKILRDIETKYNWIRVVTSEGQKRDLSFHYAEVVRYGLSLSLEISSAEKIPVEYIGLIDADMILEKNFFEKMIDRFEQDPNLGVASGSTAYFEAENLVTEKGRDNLPIGGLRVWRRECLIETGGFPLSYSADSVSNVLALLHGWETKKFEDIIGIQTRRTGSAEGLWKGYITKGESDYYRDYHPVYVLSKFIKYSFTHPFYIGIAYMEGYINGIVKIKKKICIPEVRRYYRKKHLEIGRYYAGKFKFKLLEHHHHHH,failed
2,MAIGMSELKKGLKIELGGVPYRIVEYQHVKPGKGAAFVRAKIKSFLDGKVIEKTFHAGDKCEEPNLVEKTMQYLYHDGDTYQFMDIESYEQIALNDSQVGEASKWMLDGMQVQVLLHNDKAISVDVPQVVALKIVETAPNFKGDTSSASKKPATLETGAVVQVPFHVLEGEIIKVNTETEEYLEKVK,failed
3,MAIIASNNSWDLYQLAVVILNYRTPQLVVDCLASLVSQIDPQTQQVIVVDNASGDDSVEEIEKAIANNNWQDWVRLLPSDVNGGFSAGNNLGIQAIRAENYLLLNSDTIVRPGAIQTLLVALEQYPEAGLFSPRLEWPDGTPQISCFRDHSPLSEMIDGARTSVITKLLQPFDVPIPVTEQSFEPQWTSFACVLIRRSVVEQIGLMDDGYFMYYDDIDYCRRARQAAWKIRYIPQASVVHLRGGSGSVKSDVASRKRPRPYLYASRSRYFAKFYGPLGLALANLGWLGGWGIAALREILGQKEPHTCDRQWQDIWFQWRQPLKPYRPELEHHHHHH,not failed
4,MAIKFQYNKTSLQQLEKQLKVRVRTLPIIKNKESALRMEVKRCKTEAAGLEERLEKQIQAYEAMFALWNEFDASLIKVSDVHLGIKKIAGVRVPLLENVDFDIRPYSLFNSPKWYSDGIYLLKGLAQTAIEREFMLAKLNLLEHARKKTTQKVNLFEKVQIPGYQDALRKIKRFMEDEENLSKSSQKILKSIQEKRKEAEA,not failed
5,MAIKVGINGFGRIGRSFFRASWGREEIEIVAINDLTDAKHLAHLLKYDSVHGIFKGSVEAKDDSIVVDGKEIKVFAQKDPSQIPWGDLGVDVVIEATGVFRDRENASKHLQGGAKKVIITAPAKNPDITVVLGVNEEKYNPKEHNIISNASCTTNCLAPCVKVLNEAFGVEKGYMVTVHAYTNDQRLLDLPHKDFRRARAAAINIVPTTTGAAKAIGEVIPELKGKLDGTARRVPVPDGSLIDLTVVVNKAPSSVEEVNEKFREAAQKYRESGKVYLKEILQYCEDPIVSTDIVGNPHSAIFDAPLTQVIDNLVHIAAWYDNEWGYSCRLRDLVIYLAERGL,not failed
6,MAIRDAFGLTFSGATETGFTPYSQAVRELLCFIGDPVASVDRAILADPGFVMAHVFKGYLFGLATERDATAVARACHEAALPLAATTREEAHVLALGHLANGRWHDAARILEDVAIETPLDALALQVGHQIDFFTGNARMLRDRIARALPSWQSGMPGYHAILGMQAFGLEEMGDYTRAEKLGRTAVEIEPRDGWAQHAVAHVMEMQSRQRDGIVWMRANPEAWTKESFLQVHNWWHLALFHYDLGEIDQVLALYDGPIYGAPSAMALNMVDASALLWRLHLGGIDVGDRWAALAANWPKAGAGDYAFNDAHAMMAFVGAGLDGPALALLEAQREAMHGSGDNAAFTRDVGHPLTLAIKAFGEANYTEAVQLIRPIRAIANRFGGSHAQRDVIDLTLIEAALRAGDRALAGALTAERSMARPDSPLSVLLARRAADLSEN,failed
7,MAISKDLYPSQEDLLYEEELLRNQFSLKLWWRYLIAKAESPFKKRFIIYERALKALPGSYKLWYAYLRERLDIVRNLPVTHPQYDSLNNTFERGLVTMHKMPRIWVMYLQTLTVQQLITRTRRTFDRALCALPVTQHDRIWEPYLVFVSQNGIPIETSLRVYRRYLMYDPSHIEEFIEFLVKSERWQESAERLASVLNDDKFYSIKGKTKHKLWLELCELLVHHANVISGLNVDAIIRGGIRKFTDEVGMLWTSLADYYIRKNLLEKARDIYEEGMMKVVTVRDFSVIFDVYSRFEESTVAKKMEMMSSSDEEDENEENGVEDDEEDVRLNFNLSVKELQRKILNGFWLNDDNDVDLRLARLEELMNRRPALANSVLLRQNPHNVEQWHRRVKIFEGNAAKQILTYTEAVRTVDPMKAVGKPHTLWVAFAKLYENHKDLVNTRVIFDKAVQVNYKTVDHLASVWCEWAEMELRHKNFKGALELMRRATAVPTVEVRRRVAADGNEPVQMKLHRSLRLWSFYVDLEESLGTLESTRAVYEKILDLRIATPQIIMNYAFLLEENKYFEDAFKVYERGVKIFKYPHVKDIWVTYLTKFVKRYGKTKLERARELFEHAVSMAPSDAVRTLYLQYAKLEEDYGLAKRAMKVYEEATKKVPEGQKLEMYEIYISRAAEIFGVPRTREIYEQAIESGLPHKDVKIMCIKFAELERSLGEIDRARALYKYSSQFADPRSDPEFWNKWHEFEVQHGNEDTYREMLRIKRSVSASYSQTHFILPENMMQKDKLLDVEDAKGELKRAGLPEDEMAALERQLLSTTTPTEPAKDGGRRVGFVSAGVISQSGENEGKPVTGNGEDIELPDESDDESDGDDHVEISQKEVPAAVFGGLARKRDEDGEEAGEDGAAQKLGALERIKRQKLNQ,failed
8,MAKAGGITNAVNVGIAVQADWENREFISHISLNVRRLFEFLVQFGKPHSLTYFSVLGFEFN,failed
9,MAKEVVYRGSARQRMMQGIEILARAAIPTLGATGPSVMIQHRADGLPPISTRDGVTVANSIVLKDRVANLGARLLRDVAGTMSREAGDGTTTAIVLARHIAREMFKSLAVGADPIALKRGIDRAVARVSEDIGARAWRGDKESVILGVAAVATKGEPGVGRLLLEALDAVGVHGAVSIELGQRREDLLDVVDGYRWEKGYLSPYFVTDRARELAELEDVYLLMTDREVVDFIDLVPLLEAVTEAGGSLLIAADRVHEKALAGLLLNHVRGVFKAVAVTAPGFGDKRPNRLLDLAALTGGRAVLEAQGDRLDRVTLADLGRVRRAVVSADDTALLGIPGTEASRARLEGLRLEAEQYRALKPGQGSATGRLHELEEIEARIVGLSGKSAVYRVGGVTDVEMKERMVRIENAYRSVVSALEEGVLPGGGVGFLGSMPVLAELEARDADEARGIGIVRSALTEPLRIIGENSGLSGEAVVAKVMDHANPGWGYDQESGSFCDLHARGIWDAAKVLRLALEKAASVAGTFLTTEAVVLEIPDTDAFAGFSAEWAAATREDPRV,failed
10,MAKFIMVVGTSSNSGKTVLVSGICRMLSNKGYKVAPFKSQNMSLNSRVSVEDGEIAVAQYTQAMAARAEPSVHFNPILLKPKGNFVSQVIVHGNPYEDKDYNEYRSKKDDFLVKIKESIDYLDKNYDYVVIEGAGSCCEINLLNDDIANLKVAEIAGADAILVSDIDRGGVFASIYGTVQLLPENWKKLLKGFVINKFRGNIDVLKDGFEKIEELTNIPVIGTIPYDETLVLPEEDSQALDGKRVFGNLKSPIEVNVVKFSKIANFTDVDPFSSDCLMKYIDFNENITGDILILPGTRCSTVEMDLMKKYGMDKKILEFVENGGIVLGICGGYQALGKMLFDEDFSEGDVGTISGLGLFDMETTFGNKKAIKNSTGKISIFNQNFDVSGYELHEGYSVSNETPLISLSKGFGNCGDSYDGSFKMIGDSYIFGTYFHGILENFEFRNYLVNLARSKKNLSKIEDDTYAELFNENMDKLSKIIEENLDFSKIIG,failed
11,MAKGSAKKSFLDLFKITDSNDDDFDDDMFDDEDEMEDEYDDPYDEAYDSEEEYDDGSDAASDRAKASPLKSFNKYKNSRTPSGNVSKTKTAKSSQNSKLVSINSRSDRDSYDDSEVFVIKPDEFDDAQMIIDHLNRGQIIVINMEDLDLPTAQRIADFIGGASYAVNGLFQAISGNIFLATPNGTYVSGDLREELAGGSLGGEDLSKATY,failed
12,MAKIFVVGGSGRVASELIKNLINDGNQVFASSRHPEKIIKLDNVVPVKLDLHSDVSAWSEVFKGMDVIYFVAGSRGKDLLQTDAMGAVKTMQAAENVGVKRYIMLSSLYALQPEKWSQYESLAALTDYNIAKFFADNYLVNDTKLDYTVVQPASLTEETGTGRVSFNEIISNTNPIPDVAKVLAEVIKHNNTIGKVIMMCSGDNPIETALKDI,failed
